Experimental data as given in US20110081662A1, “SCREENING METHODS FOR BONE MORPHOGENETIC MIMETICS” (THRASOS THERAPEUTICS, INC., priority 2000, published 2011).

Key:
bone formation = assay: Subcutaneous implantation assay in rodents (bone formation); assay type: in vivo; conditions: rat, subcutaneous implant, day 14, data not shown
Protocol: Subcutaneous implantation assay in rodents: This assay is based on the ability of BMP-7 to induce bone formation in the rat. […] Briefly, 1.2 mg of bovine bone matrix (collagen carrier) was added to BMP-7 or test peptide or small molecule or BMP-7 and test peptide in 200 μl of 50% acetonitrile, […]. A minimum of 6 animals per group were used. The day of implantation is designated as day 0 of the assay. Implants were removed on day 14 for evaluation. Bone-forming activity in the implants was monitored by the calcium content essentially as described by Reddi, A. H. & Huggins, C. B. (1972) PNAS USA 69, 1601-1605. For histology, implants were fixed in Bouin's solution, embedded in JB4 plastic medium, cut into 1 um sections, and stained by toluidine blue. […] (Data not shown)

daf-4 ECD = biological target: T1, daf-4 ECD (Caenorhabditis elegans, UniProt P50488); assay: BMP binding to purified daf-4 ECD (ligand blot, Scatchard analysis); parameters: species or system C. elegans
T1 construct: 1 includes additional portions on the N and C terminus; made in house; host or cells: transfected DHFR(-) CHO cell line PJ511.9.8, purified from conditioned medium
T1 sequence (P50488 with tags, fused parts or gaps): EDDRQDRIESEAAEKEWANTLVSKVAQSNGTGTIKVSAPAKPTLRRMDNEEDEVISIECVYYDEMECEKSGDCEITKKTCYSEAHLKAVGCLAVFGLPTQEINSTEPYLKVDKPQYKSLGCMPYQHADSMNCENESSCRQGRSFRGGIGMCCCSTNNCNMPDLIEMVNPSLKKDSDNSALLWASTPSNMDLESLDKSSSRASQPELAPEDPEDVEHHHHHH
Description: A novel ligand-blot technique was developed to evaluate the binding of BMP-7 to the purified daf-4 ECD.

ECD of daf-4 receptor = biological target: T2, ECD of daf-4 receptor (Caenorhabditis elegans, UniProt P50488); assay: Type II receptor-based HTS rapid solid-phase assay; assay type: binding, C. elegans; conditions: ECD immobilized on PVDF membrane, 18 h, room temperature
T2 construct: 1 includes additional portions on the N and C terminus; made in house; host or cells: transfected DHFR(-) CHO cell line PJ511.9.8, purified from conditioned medium
T2 sequence (P50488 with tags, fused parts or gaps): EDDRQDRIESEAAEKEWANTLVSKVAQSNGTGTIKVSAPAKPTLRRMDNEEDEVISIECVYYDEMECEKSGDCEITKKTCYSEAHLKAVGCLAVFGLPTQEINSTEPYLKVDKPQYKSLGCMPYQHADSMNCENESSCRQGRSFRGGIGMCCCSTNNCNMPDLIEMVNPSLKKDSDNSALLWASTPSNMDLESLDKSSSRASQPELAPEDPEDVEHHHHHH
Description: Preparation of type II Receptor ECD: Highly purified extracellular domain (ECD) of the type II receptor daf-4 was used in this assay. The ECD of the daf-4 receptor was cloned and vectors (pCMV5 expression vectors, daf-4 sequence including the mammalian consensus start site and the hexa-histidine sequence tag) are constructed for the expression of this molecule in mammalian cells. In this construct, the ECD has been linked to a hexa-Histadine sequence tag for subsequent purification and detection. The transfected DHFR(−) CHO cell line PJ511.9.8 has been used for the daf-4 expression as outlined below. This cloning method can also be utilized with other bone morphogenetic proteins.
Purification of daf-4 ECD: A purification protocol to process large volumes of conditioned media (3.5 L/week) was developed. The procedure involves initial isolation of daf-4 ECD by using Talon (Pharmacia Tech.) Immobilized metal affinity column. As daf-4 ECD protein is linked to a hexa-His sequence, the protein is bound to the metal affinity column and is subsequently eluted by imidazoic ([…]) containing buffer. […] The purified preparation was analyzed by reversed phase HPLC. […]
HTS assay procedure: BMP-7 binding activity was determined by a rapid solid-phase assay using ^125I-labeled BMP-7 as ligand and highly purified ECD of daf-4 as type II receptor. […]

B1: BMP-7: homodimeric glycoprotein of the TGF-β superfamily; unlabeled standard (protein)
chain: STGSKQRSQNRSKTPKNQEALRMANVAENSSSDQRQACKKHELYVSFRDLGWQDWIIAPEGYAAYYCEGECAFPLNSYMNATNHAIVQTLVHFINPETVPKPCCAPTQLNAISVLYFDDSSNVILKKYRNMVVRACGCH
- bone formation in implants (bone formation): induced bone formation
- binding to extracellular domain of daf-4 (daf-4 ECD): readily binds
- inhibition of 125I-labeled BMP-7 binding to the ECD of daf-4 receptor (ECD of daf-4 receptor): 78%
